The target of test [1] is T1, His-tagged 6FNIII-domain of Neogenin (Gallus gallus, UniProt Q90610 429-1036).
T1 construct: also called His-6FNIII; His-FNIII; not shown: His tag
T1 sequence: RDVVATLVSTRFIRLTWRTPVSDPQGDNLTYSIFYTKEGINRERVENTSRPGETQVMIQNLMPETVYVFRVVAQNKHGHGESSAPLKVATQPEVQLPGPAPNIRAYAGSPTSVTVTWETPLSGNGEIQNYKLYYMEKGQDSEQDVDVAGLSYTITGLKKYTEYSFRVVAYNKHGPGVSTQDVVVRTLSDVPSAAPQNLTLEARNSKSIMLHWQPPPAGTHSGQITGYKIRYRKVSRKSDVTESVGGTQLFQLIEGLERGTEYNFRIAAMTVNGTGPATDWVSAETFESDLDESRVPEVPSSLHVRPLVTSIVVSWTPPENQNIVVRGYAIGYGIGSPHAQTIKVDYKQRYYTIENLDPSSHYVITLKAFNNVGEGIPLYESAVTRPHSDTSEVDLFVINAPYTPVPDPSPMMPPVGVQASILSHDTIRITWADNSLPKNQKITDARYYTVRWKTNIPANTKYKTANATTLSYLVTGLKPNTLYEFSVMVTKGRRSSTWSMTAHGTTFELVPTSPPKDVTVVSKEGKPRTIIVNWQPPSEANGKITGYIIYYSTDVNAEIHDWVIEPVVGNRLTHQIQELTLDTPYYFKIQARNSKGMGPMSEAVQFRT
As to the kind of experiment: complementary plate assay, RGMa peptides fused with AP on coated Neogenin domains (FIG. 9). As for the experimental part: (§1) (A) Different RGMa-AP proteins were incubated on wells coated with the 4Ig 6FNIII or BSA. […] Data were average±SEM (n=3 independent experiments), *p<0.005. (B) Quantification of a binding assay where 4Ig-AP and 6FNIII-AP proteins were assayed on wells coated with proteins from different RGMa regions. […] C-RGMa proteins and full length RGMa only bound 6FNIII. Data were average±SEM (n=3 independent experiments), *p<0.005. […] Quantification of a binding assay where N-RGMa-AP was assayed on wells coated with proteins DCC-4Ig and Neogenin-4Ig. In this experiment Neogenin-4Ig but not DCC-4Ig interacted with N-Raft-AP. Data were average±SEM (n=4 independent experiments), *p<0.005. (D) Cis-interaction between the 4Ig domain of Neogenin and N-Raft is required for localization of Neogenin in lipid rafts. HEK-293 cells were transfected with Neogenin and RGMa constructs. BMP2 (100 nM) was added to the medium 1 hour before cells were collected. Western blotting was performed following lipid raft fractionation. Flotillin was used as a marker for lipid raft fractions, whereas the transferrin receptor (TfR) was used as a marker for heavy membrane-fractions. Every experiment was repeated twice. […] In the first set of experiments, cells were only transfected with Neogenin. […]

The target of test [2] is T1, His-tagged 6FNIII-domain of Neogenin. As to the kind of experiment: complementary plate assay, RGMa peptides fused with AP (FIG. 9). As for the experimental part:
as §1

Test [3] deals with T2, His-tagged 4Ig-domain of Neogenin (Gallus gallus, UniProt Q90610 1-383).
T2 construct: Secreted from transfected cells, purified on Ni-NTA; also called His-4Ig; Neogenin-4Ig; not shown: 6-His tag at the N-terminus; myc and 6-His tags of the pSectag 2B vector at the C-terminus
T2 sequence: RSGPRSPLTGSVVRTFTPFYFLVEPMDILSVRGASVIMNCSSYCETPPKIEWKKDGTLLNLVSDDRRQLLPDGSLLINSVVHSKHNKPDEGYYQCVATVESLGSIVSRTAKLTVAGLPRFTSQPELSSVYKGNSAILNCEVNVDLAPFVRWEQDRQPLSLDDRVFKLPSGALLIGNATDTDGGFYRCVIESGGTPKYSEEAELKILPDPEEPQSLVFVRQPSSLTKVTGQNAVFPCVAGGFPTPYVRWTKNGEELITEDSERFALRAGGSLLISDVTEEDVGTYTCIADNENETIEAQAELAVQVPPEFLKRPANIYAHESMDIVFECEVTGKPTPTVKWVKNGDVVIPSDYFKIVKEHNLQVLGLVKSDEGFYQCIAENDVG
Kind of test: complementary plate assay, RGMa peptides fused with AP on coated Neogenin domains (FIG. 9). As for the experimental part:
as §1

No end group written: not given here.

B1: N-Raft fused with alkaline phosphatase (peptide)
chain: SPCKILKCNSEFWAATSGSHHLGAEETPEFCTALRAYAHCTRRTAR
modifications: cysteine pairing not given here; also: alkaline phosphatase tag, sequence and position not given here
notes: also called N-Raft-AP; N-RGMa-AP; not shown: alkaline phosphatase tag of the Psectag2B-AP plasmid
With B1, the binding result in test [1] is listed as “no binding”.

B2: N-inh fused with alkaline phosphatase (peptide)
chain: GDLAYHSAVHGIDDLMVQHNCSKDGPTSQPRLRTLPP
modifications: also: alkaline phosphatase tag, sequence and position not given here
notes: also called N-inh-AP; not shown: alkaline phosphatase (AP)
For the molecule B2, the binding result in test [2] is “binds”; in test [3], “no binding”.

The record behind these values is patent publication US20160271230A1 (UNIVERSITY HEALTH NETWORK, published 2016).
